{"source": "patent US20050058747", "proteins": {"B1": {"name": "protease of the invention having amino acids 1-188 of SEQ ID NO: 2 (protease derived from Nocardiopsis dassonvillei subsp. dassonvillei DSM 43235) (protein)", "chain": "ADIIGGLAYYMGGRCSVGFAATNSAGQPGFVTAGHCGTVGTGVTIGNGTGTFQNSVFPGNDAAFVRGTSNFTLTNLVSRYNSGGYQSVTGTSQAPAGSAVCRSGSTTGWHCGTIQARNQTVRYPQGTVYSLTRTNVCAEPGDSGGSFISGSQAQGVTSGGSGNCSVGGTTYYQEVTPMINSWGVRIRT"}}, "key": {"[1]": {"biological_target": "Soybean agglutinin (SBA), P05046", "sequence (P05046 33-285)": "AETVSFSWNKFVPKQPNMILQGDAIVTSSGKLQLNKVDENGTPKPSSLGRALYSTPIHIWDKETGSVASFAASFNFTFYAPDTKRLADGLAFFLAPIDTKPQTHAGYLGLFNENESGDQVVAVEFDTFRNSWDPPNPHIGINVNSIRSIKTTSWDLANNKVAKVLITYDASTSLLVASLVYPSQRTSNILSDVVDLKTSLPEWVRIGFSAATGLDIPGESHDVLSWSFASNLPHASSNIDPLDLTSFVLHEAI"}, "[2]": {"biological_target": "T1, soybean Bowman-Birk inhibitor, P01055", "T1 chain": "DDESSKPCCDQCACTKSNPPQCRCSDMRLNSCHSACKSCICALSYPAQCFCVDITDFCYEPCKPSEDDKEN"}, "[3]": {"biological_target": "T2, soybean Kunitz trypsin inhibitor, P01070", "T2 chain": "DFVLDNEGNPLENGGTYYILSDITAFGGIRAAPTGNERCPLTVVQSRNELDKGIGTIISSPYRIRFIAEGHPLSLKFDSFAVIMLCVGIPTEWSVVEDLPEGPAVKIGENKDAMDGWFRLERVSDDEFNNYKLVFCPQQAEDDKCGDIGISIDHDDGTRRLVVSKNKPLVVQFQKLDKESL"}}}
{"protein": "B1", "values": [{"measurement": "Percentage degradation of isolated soy proteins", "setting": "[1]", "result": 95, "unit": "%"}, {"measurement": "Percentage degradation of isolated soy proteins", "setting": "Soybean beta-conglycinin", "result": 100, "unit": "%"}, {"measurement": "Percentage degradation of isolated soy proteins", "setting": "Soybean glycinin", "result": 100, "unit": "%"}, {"measurement": "Percentage degradation of isolated soy proteins", "setting": "[2]", "result": 81, "unit": "%"}, {"measurement": "Percentage degradation of isolated soy proteins", "setting": "[3]", "result": 97, "unit": "%"}]}
